From IntAct's records for PubMed 21637298

Assays:
[1] = target: xrcc4_human XRCC4 (UniProt Q13426)
[2] = target: xrcc4_human XRCC4 (UniProt Q13426); remark: listed apart in the source

xrcc4_human XRCC4, sequence (Q13426 whole entry): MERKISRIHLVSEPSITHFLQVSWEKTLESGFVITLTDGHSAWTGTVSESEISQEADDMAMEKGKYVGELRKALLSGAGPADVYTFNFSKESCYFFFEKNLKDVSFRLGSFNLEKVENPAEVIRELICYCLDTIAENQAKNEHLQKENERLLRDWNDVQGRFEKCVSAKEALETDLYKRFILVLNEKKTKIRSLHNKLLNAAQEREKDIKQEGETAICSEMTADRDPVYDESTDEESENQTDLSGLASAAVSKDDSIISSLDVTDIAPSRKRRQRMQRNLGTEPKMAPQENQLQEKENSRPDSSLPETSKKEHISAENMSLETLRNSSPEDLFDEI

| Substance | effect of a mutation on the interaction [1] | effect of a mutation on the interaction [2] |
| --- | --- | --- |
| Bifunctional polynucleotide phosphatase/kinase (Homo sapiens), Q96T60 S114A | decreasing interaction |  |
| Bifunctional polynucleotide phosphatase/kinase (Homo sapiens), Q96T60 S126A |  | decreasing interaction |
